Experiment [1] relates to Chinese Hamster Ovary (CHO) cell line. Briefly: Binding to untransfected CHO cells (low ErbB-2, no other ErbB). The settings on record: cells express low amounts of ErbB-2, no other ErbB receptor. Here is the method: To test the prediction that NRG-4 can recognize a surface-expressed ErbB-4, but no other membrane-bound ErbB protein, a Chinese Hamster Ovary (CHO) cell line was employed. […] CHO cells were transfected with plasmid vectors directing expression of ErbB-4, or co-transfected with an ErbB-4 plasmid together with vectors expressing one of the three other ErbB proteins. Two days later, cells were incubated with ^125I-NRG-4, or with a radiolabeled NRG-1 as control, and subsequently the formed ligand-receptor complexes were stabilized by using a covalent crosslinking reagent. Immunoprecipitation of the expressed ErbB proteins allowed analysis of the covalently held complexes. […] Nevertheless, both monomers and dimers of ErbB-4 were formed by the two ligands (detection of NRG-4-containing dimers required longer film exposures).

In experiment [2] the target is T1, surface-expressed ErbB-4 (Homo sapiens, UniProt Q15303).
T1 construct: expressed in transfected cells; host or cells: CHO (Chinese Hamster Ovary) cells
The experiment is described as follows: Covalent crosslinking to CHO cells transfected with ErbB-4. The class given is binding. The settings on record: expression of ErbB-4 alone. Here is the method:
(§1) CHO cells were transfected with vectors directing expression of the indicated ErbB proteins or their combinations. Two days later cell monolayers were incubated with either ^125I-NRG-1β or ^125I-NRG-4 (EGF-like domains, each at 100 ng/ml). Following 2 hours at 4° C., the covalent crosslinking reagent bis(sulfosuccinimdyl)-suberate (BS^3) was added (1 mM final concentration) and cell extracts prepared after an additional 45 minutes of incubation. The indicated ErbB proteins were then immunoprecipitated with mouse monoclonal antibodies, and the complexes resolved by gel electrophoresis and autoradiography. Arrows mark the locations of monomeric (M) and dimeric (D) receptor complexes.
(§2) Growth factors were labeled with Iodogen (Pierce) as described (Karunagaran et al., 1995). Chemical crosslinking to Chinese Hamster Ovary (CHO) cells engineered to express different ErbB combinations have been performed essentially as described (Tzahar et al., 1996). Briefly, radiolabeled ligands (at 100 ng/ml) were incubated for 2 hours with cell monolayers at 4 C. […] Non-specific binding was determined in the presence of a 100-fold molar excess of the unlabeled ligani. Cells were then washed, lysed in a solution containing 0.1 M NaOH and 0.1% SDS, and radioactivity determined by use of a gamma counter. […]

The target of experiment [3] is T2, ErbB-4 co-expressed with ErbB-3 (Homo sapiens, UniProt Q15303).
T2 construct: expressed in transfected cells; host or cells: CHO (Chinese Hamster Ovary) cells, transient co-transfection
The experiment is described as follows: Covalent crosslinking to CHO cells co-transfected with ErbB-4 and ErbB-3. It is filed as binding. Here is the method:
as §1, §2

For experiment [4], the system named is 180-kDa ErbB receptors and MAP-kinase (Erk-1 and Erk-2) in D24 cells. Briefly: Tyrosine phosphorylation and MAPK activation, immunoblotting. The class given is cell-based. The settings on record: 100 ng/ml, five minutes. Here is the method: (§3) Derivatives of 32D cells expressing ErbB-4, either alone (D4 cells) or in combination with ErbB-2 (D24 cells) were incubated for 5 minutes at 37° C. with either NRG-4 or NRG-1β (each at 100 ng/ml). Whole cell extracts were then prepared, resolved by gel electrophoresis, and transferred to a nitrocellulose filter. The upper portion of the filter was immunoblotted with antibodies to phosphotyrosine (P-Tyr, the 150-200 kDa region is shown) or an antibody directed at the activated doubly phosphorylated form of the MAPK (Erk1 and Erk2, the 40-50 kDa region is shown). Antibodies were incubated with a secondary reagent coupled to horseradish peroxidase, allowing subsequent detection by chemiluminescence.
(§4) For receptor activation studies, derivatives of the 32D cell line were resuspended in phosphate-buffered solution (PBS) and incubated at 22 C for 15 minutes before adding growth factors and incubating for five minutes at 37 C. Cells were then pelleted and lysed in ice cold solubilization buffer [50 mM Tris-HCl pH 7.5, 150 mM NaCl, 1% Nonidet-P40, 0.5% Na-deoxycholate, 0.1% sodium dodecyl sulfate (SDS), 1.5 mM EDTA, 1.5 mM MgCl2, 2 mM Na-orthovanadate, 1 mM phenylmethylsulfonyl fluoride (PMSF), 10 µg/ml aprotinin and 10 µg/ml leupeptin] and left on ice for 15 minutes. The whole cell extract was then cleared by centrifugation (12,000×g for 10 minutes at 4 C), immediately boiled in reducing gel sample buffer, and resolved by 10% SDS PAGE before being transferred onto nitrocellulose. Filters were blocked in TBST buffer (0.02 M Tris-HCl pH 7.5, 0.15 M NaCl, 0.05% Tween-20) containing 1% milk for 40 minutes at 22 C, blotted with primary antibodies in TBST overnight at 4 C, followed by conjugation with a secondary antibody linked to horseradish peroxidase and subsequent detection by chemiluminescence (Amersham Corp.).
(§5) Evidently, NRG-4 binds to ErbB-4 and mediates cell proliferation through activation of this receptor. Because other ErbB ligands stimulate cell growth via tyrosine phosphorylation of their respective receptors and activation of the intervening mitogen-activated protein kinase (MAPK) cascade, these two signaling steps were tested in NRG-4-responsive myeloid cells expressing ErbB-4 (D4 and D24 cell lines). Cells were stimulated with 100 ng/ml of activating ligand for five minutes, followed by lysis and analysis by immunoblotting.
A general note: In western blotting, separated proteins are transferred to a membrane and probed.

The subject of experiment [5] is 180-kDa ErbB receptors and MAP-kinase (Erk-1 and Erk-2) in D4 cells. The description is as above. It is filed as cell-based. The settings on record: 100 ng/ml, five minutes. Here is the method: as §3, §4, §5

T2 sequence (Q15303 26-1308): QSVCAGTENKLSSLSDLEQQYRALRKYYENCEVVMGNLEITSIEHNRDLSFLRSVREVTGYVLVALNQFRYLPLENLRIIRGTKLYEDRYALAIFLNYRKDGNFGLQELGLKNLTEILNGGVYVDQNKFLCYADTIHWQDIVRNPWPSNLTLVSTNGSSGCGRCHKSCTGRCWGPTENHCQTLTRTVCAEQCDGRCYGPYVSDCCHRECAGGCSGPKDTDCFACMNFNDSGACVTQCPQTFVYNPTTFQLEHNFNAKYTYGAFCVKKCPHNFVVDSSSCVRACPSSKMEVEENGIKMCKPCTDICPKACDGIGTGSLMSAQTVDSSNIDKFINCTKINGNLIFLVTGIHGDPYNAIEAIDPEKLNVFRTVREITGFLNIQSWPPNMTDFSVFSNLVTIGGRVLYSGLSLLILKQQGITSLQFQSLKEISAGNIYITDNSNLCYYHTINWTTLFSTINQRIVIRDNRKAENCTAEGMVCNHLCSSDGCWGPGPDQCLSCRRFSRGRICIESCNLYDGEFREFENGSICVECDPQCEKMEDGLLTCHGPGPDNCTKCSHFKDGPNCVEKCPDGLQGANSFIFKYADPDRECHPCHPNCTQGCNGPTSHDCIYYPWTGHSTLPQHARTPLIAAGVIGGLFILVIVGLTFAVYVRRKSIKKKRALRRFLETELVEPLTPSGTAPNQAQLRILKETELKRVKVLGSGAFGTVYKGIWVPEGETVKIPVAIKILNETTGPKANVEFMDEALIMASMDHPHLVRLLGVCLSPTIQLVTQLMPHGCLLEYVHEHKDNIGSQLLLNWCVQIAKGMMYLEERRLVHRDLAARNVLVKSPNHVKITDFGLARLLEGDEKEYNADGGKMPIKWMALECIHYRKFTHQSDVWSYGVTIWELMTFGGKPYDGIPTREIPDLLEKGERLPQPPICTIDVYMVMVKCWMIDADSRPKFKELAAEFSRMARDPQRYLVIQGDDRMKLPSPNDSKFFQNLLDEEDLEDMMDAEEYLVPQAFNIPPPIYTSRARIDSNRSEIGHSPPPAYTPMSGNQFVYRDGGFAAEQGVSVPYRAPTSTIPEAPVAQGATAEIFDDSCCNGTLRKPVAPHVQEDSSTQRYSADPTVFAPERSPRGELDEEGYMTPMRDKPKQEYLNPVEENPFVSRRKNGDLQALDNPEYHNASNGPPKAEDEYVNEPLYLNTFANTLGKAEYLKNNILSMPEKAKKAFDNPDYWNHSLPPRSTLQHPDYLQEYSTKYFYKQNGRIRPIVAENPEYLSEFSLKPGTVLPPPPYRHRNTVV
T1 sequence (Q15303 26-1308, species assumed): as the sequence (Q15303 26-1308) above

B1: NRG-4: synthetic refolded mouse EGF-like domain of NRG-4 (residues 4 to 50, SEQ ID NO:2) (peptide, listed as Mus musculus)
chain: MPTDHEQPCGPRHRSFCLNGGICYVIPTIPSPFCRCIENYTGARCEEVFLPSSSIPSESNLSAAFVVLAVLLTLTIAALCFLCRKGHLQRASSVQCEISLVETNNTRTRHSHREH
Regarding B1, the “binding to untransfected CHO cells” value in experiment [1] is “failed to bind”. Moreover, the “covalent crosslinking signal compared with radioactive NRG-1” value in experiment [2] is on record as “weaker than that observed with a radioactive NRG-1”. In addition, in experiment [2] (125I-ligand 100 ng/ml), the “complex formation with ErbB-4 on CHO cells” value was “ability to form complexes”. Further, the “effect of ErbB-3 co-expression on the radioactive signal” value in experiment [3] (CHO cells, ErbB-4 + ErbB-3) was “did not significantly affect the radioactive signals”. Also, in experiment [3] (following ligand binding), the “heterodimerization of ErbB-3 with ErbB-4” value is recorded as “largely escaped heterodimerization”. For the same molecule, in experiment [4], the “activation of MAP-kinase (Erk-1 and Erk-2), D24 cells” value is given as “accompanying activation of MAP-kinase”; the “phosphorylation of the 180-kDa ErbB receptors, D24 cells” value is reported as “stimulated phosphorylation”. Besides, in experiment [5], the “activation of MAP-kinase (Erk-1 and Erk-2), D4 cells” value is given as “accompanying activation of MAP-kinase”; the “phosphorylation of the 180-kDa ErbB receptors, D4 cells” value was “stimulated phosphorylation”.

The record behind these values is US7981997B2, “Growth factor which acts through ErbB-4 RTK” (Yeda Research And Development Co., priority 2000, dated 2011).
